In the Human Domainome abundance scans (Beltran et al. 2025):

B1: V(D)J recombination-activating protein 2, residues 415 to 491; numbered along this chain, P55895 (parent)
chain: YWITCCPTCDVDINTWVPFYSTELNKPAMIYCSHGDGHWVHAQCMDLAERTLIHLSAGSNKYYCNEHVEIARALHTP

Variants of: B1
Experiment: abundance fitness (aPCA) (normalised: wild type 0, dead -1); higher = more abundant; growth selection in yeast, the domain comes from the species named
Conditions: Homo sapiens

Abundance fitness: each site, then its substitutions
H54: M -0.087, L 0.016, W -0.064, E 0.02, T -0.12, F -0.602, C 0.001, V 0.008, Y -0.183, K 0.112, D 0.042, N -0.061, A 0.004, Q -0.277, S -0.002, G 0.035, R -0.056, P -0.007
S56: C -0.099, W -0.07, Y 0.052, A 0.078, K 0.029, P -0.074, L -0.046, H -0.038, Q -0.031, E 0.058, N -0.194, V 0.005, G 0.005, I -0.113, D -0.04, F -0.052, T 0.004
L55: Q 0.027, N -0.062, K -0.019, F -0.06, R -0.111, A -0.108, D -0.152, H 0.085, W -0.086, P -0.218, C 0.04, T -0.174, V -0.082, Y -0.027, G -0.18, M -0.026, S -0.011, E -0.051
T51: S -0.039, K 0.014, C -0.027, Y -0.068, F -0.118, L 0.016, E -0.016, M -0.133, V -0.043, R 0.034, G -0.048, D -0.042, W -0.412, I -0.138, P -0.203, H 0.003, N -0.191, A -0.025
E49: R -0.368, C -0.201, P 0.023, L -0.124, A -0.056, I -0.468, W -0.292, S -0.243, M -0.168, N -0.183, D -0.038, F -0.149, T -0.345, K -0.279, Y -0.127, V -0.264, Q -0.019, G -0.295
A57: K -0.111, G -0.068, D 0.04, C -0.124, I 0.216, M -0.156, H 0.091, E -0.03, P -0.029, S 0.048, T -0.121, N 0.057
I53: P -0.163, H -0.069, N 0.244, T 0.004, V -0.048, W -0.124, L -0.02, E -0.194, F -0.013, R -0.011, S 0.049, A 0.154, G 0.007, M 0.041, D -0.184, Y -0.133, C -0.056
A48: V -0.009, R 0.023, H -0.226, I 0.041, L 0.001, P 0.037, K -0.011, Y -0.092, Q 0.105, W -0.04, S -0.066, N -0.339, M -0.022, T 0.026
L52: T -0.161, V -0.033, S -0.262, D -0.31, P -0.423, I -0.186, N -0.304, Y -0.318, Q -0.006, R -0.358, W -0.006, E -0.258, H -0.597, A -0.144, F -0.211, C -0.145
R50: I 0.067, S 0.092, N -0.215, Y -0.122, P 0.1, C 0.106, E 0.039, W -0.195, A 0.094, T 0.049, L 0.013, G 0.036, F -0.04, D -0.027, V 0.069, Q -0.032, K 0.015, H 0.037, M 0.015
